Substitutions are numbered along the chain they refer to.
Columns and labels:
[1] = molecular target: T1, Tetracycline repressor protein (TetR) (UniProt P04483 P04483:1-207); test: flow; 50 mM Tris pH 8.0, 50 mM KCl, 5 mM MgCl2, room temperature; repression 56% cell-free, 75% yeast; details: tags: N-terminal T7 tag, C-terminal His6 (pET24a); chain copies: 2 (inferred, TetR dimer); label: 3' fluorescein
Method: (§1) Quantitative affinity measurements of aptamer interactions with TetR were performed as described previously. Brodsky et al, “A microbead-based system for identifying and characterizing RNA-protein interactions by flow cytometry” Mol Cell Proteomics 1:922-929 (2002); and Warren et al, “A novel binding assay to assess specificity of monoclonal antibodies” J Immunol Methods 305:33-38 (2005). Dynabeads TALON® (Invitrogen) (1 μL) were washed with Affinity Binding Buffer (ABB) (BB+10 μg/mL BSA) and centrifuged at 250×g for 2 mins. Beads were resuspended in ABB and incubated with 60 μg of purified His₆-tagged TetR for 1 h at room temperature. TetR-coated beads were washed twice and resuspended in ABB. Beads were counted by microscopy, and 70,000 beads were placed per well in a 96-well microplate. Fluorescein-labeled RNA in ABB was added to the beads. […] The median fluorescence intensities of the samples were plotted against RNA or DNA concentration using GraphPad Prism® 5 (GraphPad Software, Inc.).
(§2) This example presents a data summary of the various constructs tested for TetR-aptamer binding, cell-free translation, and yeast in vivo expression experiments. Translational repression is reported as the luminescence intensity of the uninduced condition relative to the induced condition. The binding of RNA aptamers to TetR was measured by flow cytometry. […]

[2] = molecular target: T1, Tetracycline repressor protein (TetR); test: flow; 50 mM Tris pH 8.0, 50 mM KCl, 5 mM MgCl2, room temperature; repression NS cell-free, 9% yeast; details: tags: N-terminal T7 tag, C-terminal His6 (pET24a); chain copies: 2 (inferred, TetR dimer); label: 3' fluorescein
Method: as §1, §2

[3] = molecular target: T1, Tetracycline repressor protein (TetR); test: flow; 50 mM Tris pH 8.0, 50 mM KCl, 5 mM MgCl2, room temperature; no significant translation repression; details: tags: N-terminal T7 tag, C-terminal His6 (pET24a); chain copies: 2 (inferred, TetR dimer); label: 3' fluorescein
Method: as §1, §2

[4] = molecular target: T1, Tetracycline repressor protein (TetR); test: flow; 50 mM Tris pH 8.0, 50 mM KCl, 5 mM MgCl2, room temperature; repression 91% cell-free, 81% yeast; details: tags: N-terminal T7 tag, C-terminal His6 (pET24a); chain copies: 2 (inferred, TetR dimer); label: 3' fluorescein; stem-loop
Method: as §1, §2

[5] = molecular target: T1, Tetracycline repressor protein (TetR); test: flow; binding listed as NS; no translation repression; details: tags: N-terminal T7 tag, C-terminal His6 (pET24a); chain copies: 2 (inferred, TetR dimer); label: 3' fluorescein
Method: as §1, §2

[6] = molecular target: T1, Tetracycline repressor protein (TetR); test: flow; IRE does not bind TetR with high affinity; no translation repression; details: tags: N-terminal T7 tag, C-terminal His6 (pET24a); chain copies: 2 (inferred, TetR dimer); hairpin
Method: Quantitative affinity measurements of aptamer interactions with TetR were performed as described previously. Brodsky et al, “A microbead-based system for identifying and characterizing RNA-protein interactions by flow cytometry” Mol Cell Proteomics 1:922-929 (2002); and Warren et al, “A novel binding assay to assess specificity of monoclonal antibodies” J Immunol Methods 305:33-38 (2005). Dynabeads TALON® (Invitrogen) (1 μL) were washed with Affinity Binding Buffer (ABB) (BB+10 μg/mL BSA) and centrifuged at 250×g for 2 mins. Beads were resuspended in ABB and incubated with 60 μg of purified His₆-tagged TetR for 1 h at room temperature. TetR-coated beads were washed twice and resuspended in ABB. Beads were counted by microscopy, and 70,000 beads were placed per well in a 96-well microplate. Fluorescein-labeled RNA in ABB was added to the beads. Nonspecific RNA interactions were reduced by adding 10 μg/mL yeast tRNA. The binding reaction proceeded with moderate shaking for 4 h at room temperature. […] The median fluorescence intensities of the samples were plotted against RNA or DNA concentration using GraphPad Prism® 5 (GraphPad Software, Inc.).
Several aptamers, but not the iron-responsive element, bind TetR with high affinity. […] Reporter expression was measured in a rabbit reticulocyte cell-free system or in S. cerevisiae in the presence and absence of the inducer aTc.

T1 sequence (P04483 whole entry, one chain of several): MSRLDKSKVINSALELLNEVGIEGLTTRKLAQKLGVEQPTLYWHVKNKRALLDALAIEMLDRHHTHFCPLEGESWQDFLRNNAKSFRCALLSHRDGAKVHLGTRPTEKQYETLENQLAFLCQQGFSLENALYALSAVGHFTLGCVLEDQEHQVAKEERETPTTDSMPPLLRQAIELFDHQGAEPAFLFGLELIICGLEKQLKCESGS

B1: 5-1.13 (ssRNA)
RNA: GGGAGCUCAGAAUAAACGCUCAACUCCUGUAGUGAAGGCAGAGAAAGGUCGAUACGGACGGAAUGUGAUGGCCUUCGACAUCAGGCCCGGAUCCGGC
B1 was tested, and the Kd [1] was 0.37 nM.

B2: 5-18.13 (ssRNA)
RNA: GGGAGCUGAGAAUAAACGCUCAAUAGGGAGAGAACUGUGUCAGAAUGUAGUGAACCAGACACGGAGUGGAGUAUUCGACAUCAGGCCCGGAUCCGGC
In the case of B2, the Kd [2] is reported as 0.45 nM.

B3: 5-14.7b (ssRNA)
RNA: GGGAGCUGAGAAUAAACGCUCAACAGGAAACAGCAAGACAAACGAUGGGGAGCGUAAGACUGCGAGUGUCGGAUUCGACAUCAGGCCCGGAUCCGGC
With B3 the Kd [3] was 1.44 nM.

B4: 5-1.2 (ssRNA)
RNA: GGAUCCAGGCAGAGAAAGGUCGAUACGGACGGAAUGUGAUGGCCUGGAUCC
In the case of B4, the Kd [4] is reported as 1.6 nM.

B5: 5-29.13a (ssRNA)
RNA: GGGAGCUCAGAAUAAACGCUCAACUUGCUGCAGAGGGUCGAGAAUAUGUGUGACACUGCGUCGACGGGUUAAGUUCGACAUCAGGCCCGGAUCCGGC
B5 showed a Kd [3] of 2.77 nM.

B6: 5-1.2m2 (ssRNA)
RNA: B4 RNA with A13U, A15U
B6: no binding [5].

B7: Iron Responsive Element (IRE) (ssRNA)
RNA: CUUAAGCUUCAACAGUGCUUGAACUUAAG
B7: no binding [6].

Source: patent US20110245326, “Post-Transcriptional Regulation Of RNA-Related Processes Using Encoded Protein-Binding RNA Aptamers” (published 2011)
